± gives the uncertainty stated by the source.
Test: self-splicing fitness, log relative to wild type (ln ratio); higher = more splicing; Tetrahymena group I intron in knt gene, E. coli kanamycin selection, DiMSum; sequences stand for … in CUCUCU…GGAGGGAAAAGUUAUCAGGCAUGCACCUGGUAGCUAGUCUUUAAACCAAUAGAUUGCAUCGGUUUAAAAGGCAAGACCGUCAAAUUGCGGGAAAGGGGUCAACAGCCGUUCAGUACCAAGUCUCAGGGGAAACUUUGAGAUGGCCUUGCAAAGGGUAUGGUAAUAAGCUGACGGACAUGGUCCUAACCACGCAGCCAAGUCCUAAGUCAACAGAUCUUCUGUUGAUAUGGAUGCAGUUCACAGACUAAAUGUCGGUCGGGGAAGAUGUAUUCUUCUCAUAAGAUAUAGUCGGACCUCUCCUUAAUGGGAGCUAGCGGAUGAAGUGAUGCAACACUGGAGCCGCUGGGAACUAAUUUGUAUGCGAAAGUAUAUUGAUUAGUUUUGGAGUACUCGUGGUCG
How it was run: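 Library with all eight P1ex-region intron nucleotides randomised, intron inside the knt kanamycin-resistance gene on pET-22b(+), in E. coli BL21(DE3). Cells grew overnight at 37°C or 30°C on LB agar with or without 25 μg/mL kanamycin (plus 100 μg/mL carbenicillin, 50 μM IPTG, 0.2% rhamnose), in six replicate transformations. Pooled colonies were amplicon-sequenced on Illumina HiSeq 2500. DiMSum fitness is the error-weighted combination of wild-type-normalised replicate fold changes, kanamycin versus none.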

Sequence	self-splicing fitness (ln) (30 °C)	self-splicing fitness (ln) (37 °C)
UGGCAGCAAUAUUACGCACG	-1.22 ± 0.18	0.284 ± 0.19
UGGCAGCAAUAUUACGCCUG	-1.24 ± 0.097	-0.681 ± 0.13
UGGCAGCAAUAUUACGCGGU	-2.54 ± 0.16	-2.62 ± 0.31
UGGCAGCAAUAUUACGCUGA	-2.79 ± 0.21	-1.17 ± 0.12
UGGCAGCAAUAUUACGCUUA	-0.68 ± 0.088	0.67 ± 0.1
UGGCAGCAAUAUUACGCUUU	-1.24 ± 0.076	-0.763 ± 0.1
UGGCAGCAAUAUUACGGAGA	-2.9 ± 0.42	-1.46 ± 0.41
UGGCAGCAAUAUUACGGCAC	-2.27 ± 0.25	-1.17 ± 0.16
UGGCAGCAAUAUUACGGCAU	-1.18 ± 0.083	-0.388 ± 0.092
UGGCAGCAAUAUUACGGUAC	-2.66 ± 0.2	-2.01 ± 0.31
UGGCAGCAAUAUUACGGUCA	-2.12 ± 0.18	-1.58 ± 0.15
UGGCAGCAAUAUUACGGUCG	-0.881 ± 0.083	0.133 ± 0.13
UGGCAGCAAUAUUACGGUUA	-0.000429 ± 0.076	0.0782 ± 0.092
UGGCAGCAAUAUUACGGUUC	-2.14 ± 0.2	-0.624 ± 0.19
UGGCAGCAAUAUUACGUAAG	-0.674 ± 0.049	0.00441 ± 0.073
UGGCAGCAAUAUUACGUACU	0.384 ± 0.091	0.181 ± 0.12
UGGCAGCAAUAUUACGUAGC	-4.18 ± 0.29	-2.28 ± 0.19
UGGCAGCAAUAUUACGUAGU	-2.99 ± 0.15	-1.8 ± 0.2
UGGCAGCAAUAUUACGUCGC	-3.89 ± 0.31	-2.95 ± 0.43
UGGCAGCAAUAUUACGUGAA	-0.78 ± 0.058	-0.431 ± 0.084
UGGCAGCAAUAUUACGUGAG	-0.544 ± 0.047	0.438 ± 0.077
UGGCAGCAAUAUUACGUUUG	-0.921 ± 0.06	-0.496 ± 0.089
UGGGAGCAAUAUUACGAACU	-0.981 ± 0.1	-1.42 ± 0.19
UGGGAGCAAUAUUACGAAGG	–	-1.1 ± 0.41
UGGGAGCAAUAUUACGACGA	–	-0.296 ± 0.36
UGGGAGCAAUAUUACGAGCG	-1.56 ± 0.14	-0.816 ± 0.15

Sequence	self-splicing fitness (ln) (30 °C)	self-splicing fitness (ln) (37 °C)
UGGGAGCAAUAUUACGAUCA	-0.66 ± 0.22	-0.124 ± 0.19
UGGGAGCAAUAUUACGAUCG	-1.33 ± 0.13	-0.561 ± 0.15
UGGGAGCAAUAUUACGCACA	-0.967 ± 0.35	0.399 ± 0.35
UGGGAGCAAUAUUACGCAGA	-1.08 ± 0.48	-3 ± 0.35
UGGGAGCAAUAUUACGCAGC	–	-3.01 ± 0.49
UGGGAGCAAUAUUACGCGCA	-1.66 ± 0.15	-1.16 ± 0.19
UGGGAGCAAUAUUACGCUCA	–	-2.72 ± 0.28
UGGGAGCAAUAUUACGGAAU	–	-1.69 ± 0.48
UGGGAGCAAUAUUACGGACU	-1.17 ± 0.36	-2.35 ± 0.46
UGGGAGCAAUAUUACGGCGU	–	-0.706 ± 0.28
UGGGAGCAAUAUUACGUAGG	-3.24 ± 0.31	-1.93 ± 0.32
UGGGAGCAAUAUUACGUCCU	–	-1.3 ± 0.26
UGGGAGCAAUAUUACGUGUA	–	-2.2 ± 0.26
UGGGAGCAAUAUUACGUUGC	-3.43 ± 0.4	-1.53 ± 0.23
UGGUAGCAAUAUUACGAACA	-0.325 ± 0.15	0.205 ± 0.27
UGGUAGCAAUAUUACGAGAG	-3.55 ± 0.28	-2.16 ± 0.21
UGGUAGCAAUAUUACGAGUG	-1.17 ± 0.13	-0.313 ± 0.16
UGGUAGCAAUAUUACGAUAU	-2.62 ± 0.16	-1.62 ± 0.16
UGGUAGCAAUAUUACGCCCU	-0.668 ± 0.16	0.287 ± 0.16
UGGUAGCAAUAUUACGCGAU	-2.54 ± 0.28	-0.974 ± 0.26
UGGUAGCAAUAUUACGCUUC	-2.63 ± 0.29	-0.643 ± 0.35
UGGUAGCAAUAUUACGGCUU	0.166 ± 0.18	-0.0657 ± 0.2
UGGUAGCAAUAUUACGGUGC	-2.31 ± 0.34	–
UGGUAGCAAUAUUACGGUUC	-3.54 ± 0.46	-3.1 ± 0.47
UGGUAGCAAUAUUACGGUUU	-2.64 ± 0.17	-2.6 ± 0.23

From the supplement of paper PMC7877785
